The star is where a group is joined. BODIPY(FL) = CC1=CC(C)=[N+]2C1=Cc1ccc(CCC(=O)*)n1[B-]2(F)F; AOMK = acyloxymethyl ketone C-terminal warhead; alkyne = not defined here
Key:
[1] = biological target: T1, active MALT1 (Homo sapiens, UniProt Q9UDY8); assay: Labeling with diagnostic inhibitor in cell extracts (gel-based, fluorescence scan): active MALT1 band; conditions: 2×10^6 primary human T cells, 3 μM probe
T1 construct: endogenous in cells; host or cells: Jurkat T cells, primary human PBMCs and T cells, DLBCL cell lines (HBL1, TMD8, OCI-Ly3, OCI-Ly10, U2932, RIVA, BJAB, Su-DHL-4, Su-DHL-6)
T1 sequence (Q9UDY8 1-824): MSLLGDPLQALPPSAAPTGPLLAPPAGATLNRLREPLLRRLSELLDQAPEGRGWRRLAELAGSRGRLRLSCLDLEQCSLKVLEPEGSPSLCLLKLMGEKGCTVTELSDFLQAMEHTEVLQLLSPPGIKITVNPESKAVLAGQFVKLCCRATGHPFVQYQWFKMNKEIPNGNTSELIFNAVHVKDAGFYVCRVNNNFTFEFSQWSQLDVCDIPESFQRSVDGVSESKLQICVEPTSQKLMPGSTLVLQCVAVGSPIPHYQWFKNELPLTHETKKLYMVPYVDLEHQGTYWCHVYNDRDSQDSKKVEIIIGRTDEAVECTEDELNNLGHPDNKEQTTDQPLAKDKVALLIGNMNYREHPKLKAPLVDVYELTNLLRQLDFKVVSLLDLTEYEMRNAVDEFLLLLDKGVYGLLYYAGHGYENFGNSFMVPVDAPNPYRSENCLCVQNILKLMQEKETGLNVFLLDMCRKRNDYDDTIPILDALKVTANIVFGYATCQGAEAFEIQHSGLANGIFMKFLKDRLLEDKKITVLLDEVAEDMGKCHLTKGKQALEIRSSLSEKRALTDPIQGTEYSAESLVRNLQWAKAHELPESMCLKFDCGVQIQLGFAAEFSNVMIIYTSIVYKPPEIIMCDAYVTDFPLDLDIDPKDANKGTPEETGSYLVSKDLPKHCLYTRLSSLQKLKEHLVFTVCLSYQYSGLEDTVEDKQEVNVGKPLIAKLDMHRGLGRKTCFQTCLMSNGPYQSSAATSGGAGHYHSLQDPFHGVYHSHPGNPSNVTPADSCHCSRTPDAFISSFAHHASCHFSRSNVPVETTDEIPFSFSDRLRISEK

[2] = biological target: cathepsin B (Homo sapiens, UniProt P07858); assay: Labeling with diagnostic inhibitor in cell extracts (gel-based, fluorescence scan): about 30 kDa cathepsin B band; design: endogenous in cells; host or cells: Jurkat T cells; HBL1 and other DLBCL cell lines; conditions: Jurkat T cells, whole cell extract
Protocol: (§1) Jurkat T cells were cultured in standard RPMI medium containing 10% FCS, 100 U/ml Penicillin/Streptomycin and 2 mM Glutamin. DNA transfection of 6 μg DNA in 8×10^6 Jurkat T cells was performed by electroporation in a GenePulser Xcell (BioRad) with a 220 Volt pulse. For siRNA experiments, Jurkat T cells were transfected with 100 nM siRNA and Atufect transfection reagent (Silence Therapeutics, Berlin). Jurkat T cells were stimulated either with 200 ng/ml PMA (phorbol 12-myristate 13-acetate) and 300 ng/ml Ionomycin (both Calbiochem) or CD3/CD28 antibody co-ligation (human CD3: 1 μg/ml; human CD28: 4 μg/ml; mouse IgG1: 2 μg/ml; mouse IgG2a: 2 μg/ml; BD Biosciences). DLBCL cell lines (HBL1, TMD8, OCI-Ly3, U2932, RIVA, BJAB, Su-DHL-4 and Su-DHL-6) were cultured in standard RPMI medium containing 20% FCS, 100 U/ml Penicillin/Streptomycin and 2 mM Glutamin. OCI-Ly10 cell line was cultured in IMDM containing 20% human serum, 100 U/ml Penicillin/Streptomycin, 2 U/ml heparine, 50 μM β-mercaptoethanol. Inhibitors 10 μM (z-VRPR-FMK, Mepazine, Thioridazine, CA-074Me) were added to the cells in media for 1 h, prior to stimulation and labeling with diagnostic MALT1 inhibitor.
(§2) Jurkat T cells (1-2×10^7), primary human PBMCs or primary human T cells (0.25 or 1×10^7) were lysed in 150 μl co-IP buffer without protease inhibitors. DLBCL (3×10^7) were lysed in 250 μl buffer. After centrifugation (14000 rpm, 10 min, 4° C.), 100 μl extract (DLBCL: 200 μl) was stained with probe 5 or probe 6 (3 μM end) for 50 min at 29° C., mixed with 4× loading dye and boiled.

[3] = biological target: T1, active MALT1; assay: Labeling with diagnostic inhibitor in cell extracts (gel-based, fluorescence scan): active MALT1 band
Protocol: as §1, §2

[4] = biological target: T2, FLAG-MALT1 wt (Homo sapiens, UniProt Q9UDY8); assay: Labeling with diagnostic MALT1 inhibitor after immunoprecipitation (gel-based, fluorescence scan); format: binding; conditions: probe pre-clicked to TAMRA, after FLAG immunoprecipitation in Jurkat T cells
T2 construct: expressed in transfected cells; host or cells: Jurkat T cells (pEF vector, electroporation)
T2 sequence (Q9UDY8 1-813 isoform Q9UDY8-2): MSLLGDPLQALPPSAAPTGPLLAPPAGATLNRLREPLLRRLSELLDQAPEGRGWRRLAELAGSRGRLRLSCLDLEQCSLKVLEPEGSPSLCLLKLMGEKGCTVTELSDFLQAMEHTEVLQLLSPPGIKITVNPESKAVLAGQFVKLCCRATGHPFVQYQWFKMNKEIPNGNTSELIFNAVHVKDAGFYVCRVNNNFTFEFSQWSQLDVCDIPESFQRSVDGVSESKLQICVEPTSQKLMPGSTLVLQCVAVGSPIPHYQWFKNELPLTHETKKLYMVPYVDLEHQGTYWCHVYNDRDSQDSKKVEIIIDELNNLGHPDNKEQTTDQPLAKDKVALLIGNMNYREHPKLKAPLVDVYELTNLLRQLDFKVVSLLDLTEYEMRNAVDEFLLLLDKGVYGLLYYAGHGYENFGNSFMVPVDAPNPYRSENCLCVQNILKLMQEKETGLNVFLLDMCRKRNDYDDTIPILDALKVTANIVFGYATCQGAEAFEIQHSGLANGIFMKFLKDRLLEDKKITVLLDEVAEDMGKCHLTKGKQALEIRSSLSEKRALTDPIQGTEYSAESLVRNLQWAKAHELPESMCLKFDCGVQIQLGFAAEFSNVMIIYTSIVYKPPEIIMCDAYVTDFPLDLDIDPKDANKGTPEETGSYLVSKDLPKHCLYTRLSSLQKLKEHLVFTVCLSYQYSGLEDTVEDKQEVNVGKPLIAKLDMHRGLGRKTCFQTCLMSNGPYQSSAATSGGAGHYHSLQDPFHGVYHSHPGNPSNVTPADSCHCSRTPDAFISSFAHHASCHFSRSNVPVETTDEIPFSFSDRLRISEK
Protocol: Jurkat T cells, transfected with active FLAG-[…] wt or active site mutant C464A, were stained after lysis and IP with probe 2, pre-clicked to TAMRA. Analysis was done by fluorescence staining.
Copper I-catalysed click chemistry reaction was performed in 50 μl 50 mM hepes with 10 μM alkyne-LRSR-AOMK (probe 2) and 10 μM N-TAMRA-3-aminopropylazide or 100 μM N-FITC-3-aminopropylazide. Reducing agent sodium ascorbate (0.5 mM), TBTA (50 μM) and CuSO4 (1 mM) were added to the reaction and incubated for 45 min at RT.
Cells were lysed in 500 μl co-IP buffer without protease inhibitors (25 mM hepes pH 7.5, 150 mM NaCl, 0.2% NP-40, 10% glycerol, 1 mM DTT, 10 mM sodium fluoride, 8 mM (3-glycerophosphate and 300 μM sodium vanadate), centrifuged (14000 rpm, 10 min, 4° C.) and overexpressed FLAG MALT1 was immunoprecipitated by FLAG (M2) antibody for 3 hours at 4° C. PGS was added for 1 h at 4° C., precipitate was washed 2× with co-IP buffer and 1× with 50 mM hepes pH 7.4. Precipitated MALT1 was incubated with 0.3 μM pre-clicked probe 2 (in 20 μl 50 mM hepes pH 7.4) for 50 min at 29° C., mixed with 4× loading dye and boiled for 3 min. After protein separation by SDS PAGE, staining with diagnostic inhibitor was detected by Typhoon Fluorescence Scanner (FITC laser 488 nm/filter 526 SP; TAMRA laser 532 nm/filter 580 BP).

Substance: (BODIPY-FL)-LRSR-AOMK ({BODIPY(FL)}-LRSR-{AOMK}) [probe 6]
- active MALT1 signal in primary human T cells, gel-based [1]: weak active MALT1 signal
- cathepsin B labeling compared with probe 5 [2]: cathepsin B labeling was even reduced
- active MALT1 signal in lymphoma whole cell extracts ([3]; ABC DLBCL cells (HBL1 for probe 6)): weakly labeled active MALT1
- active MALT1 labeling compared with probe 5 ([3]; Jurkat T cells, whole cell extract): slightly more effective in active MALT1 labeling
- MALT1-probe complex in ABC DLBCL cells ([3]; panel of ABC DLBCL pretreated with CA-074Me, whole cell lysates, no stimulation): detected even in the absence of any stimulation
- MALT1-probe labeling in GCB DLBCL cells ([3]; panel of GCB DLBCL pretreated with CA-074Me, whole cell lysates): all negative

Substance: alkyne-LRSR-AOMK (alkyne-LRSR-{AOMK}; not fully specified; reading uncertain) [probe 2, used pre-clicked to TAMRA]
- labeling of overexpressed FLAG-MALT1 wt versus catalytic inactive mutant [4]: FLAG-MALT1 wt but not the catalytic inactive mutant was detected

From patent US10502741B2, “Means and methods for detecting activated MALT1” (Helmholtz Zentrum München Deutsches Forschungszentrum für …, priority 2014, dated 2019)
